{"source": "the DeepSol protein solubility set"}
{"assay": "soluble on expression in E. coli; label from the status in PepcDB or PDB records"}
{"sequence": "MLNKTNTWTPSLFRDYKNAEHDACGIVSVMEKRKIPTKENIDLCIQSLVKMNHRAGFINGEGDGIGIHIDVPKALWNEKLKSSGYNPTIVDHPHFIVGHFFLNKNENIVDLKNHIRTQLNNENFAILFESDNVINSDALGPLGKQEEPLFWQVALIAENEVVNIEQTLFSVTIKIEENEAIHVASLSRDHVVYKVLGAGDTLVAYYNDLQHPLIASTMTLGHNRYSTNTLSNFFRVQPFSILGHNGEINTIAKLRDQAEMIHVPLTAGGSDSQDLNRTLETLLVQYGYSLFEAMDILFPPIINEIKLYETHLQDLYTYIREAWGHFAQGPAGIISRYKDEAVFSVDSLGLRPVWKVEIESSYIFSSEPGVVSPTEYVAEPKPLAPGEKVGLKWNEQDELVLYEHDDYQTQVYNRFKKKVDVTNYHLHLSIPKTKEIPDACDSMQVETKQYVAFGWDREHIQLLEQMATKGVEPIRSLGHDSPLAALDTDRRNIADFIKESVAVVTNPAIDRDREVEHFSTRTILGERPSLLSDAKKPFVVEMLSPIILEGSVAQSIAQELHTITYEQLIELFNTHSSIATISATFSQAETLQCALSRISSEAITAVNDGASLLLIDDADAHLNERLWIDPHLVTAKVHQVLSENKLRRNCSLVIRSGALRSLHDIVTLHGLGADSINPYLLFATVNDGTKTPITNLYNALNKGLEKVISTIGIHELRGYGRLYSSIGLHEEIANILQITNFLGSNDLAFSLESLAEDAQMRADDYNDPKVRIRKSFHIFPRIWKAIGDVAKGNSYDDYRDKLSELEENNPIAIRHLIQTKETKHVIPTEEVSISIQNHDLPFIISSMSFGSQNEIAFRAYAEAADQLNMISLNGEGGEIKDMIGKYPHTRGQQVASGRFGVNAELLNSSNLIEIKIGQGAKPGEGGHLPGSKVTAKIAEARNATIGSDLISPSNNHDIYSIEDLAQMITEIKTANQLAKVAVKVPVVPNIGTIAVGIAKAGADFINISGFDGGTGAARIHALQHVGLPVEIGVKAAHNALLEANMRHNVEIWADGGIRSVNDALKIMLLGANRIGFGTLSMIAIGCTTCRGCHLDTCHVGIATQIESEAQAKEHGLRRFVPRELESAVAGLLHLFTTFGEELKRLTGNLGYTNLQEIVGRSDLLEQVRGKNLLNLCNLLQTIEHPSVIKTEHVLEKQFEPIHSPHSKELVGVGVEQRVMGGLESCYRVRSKLYEDTKLEPLTLKYTNGSIPGNGLGAYNSENLFIHVNGGAQDGIGKTSFGGGIYITKAKGKDGLYYNGSVGKGFGYGAQKGALYVQGNADARAGIRLSGADMIIGGRMTKPLREKEQGNIGAYSNIKGFAFEYMTNGRALVLGDPGPWICAGMTGGVVYLRHDSSLGLTEQALKRRIAKGANVTLQPISKNGVRDVNELLLDYIRVLNEHEQYEEVALLTPLLDDMQQQFFEIIPKKEQADPSISTE", "soluble on expression in E. coli": "not soluble"}
{"sequence": "MLNQSVRFLARRANSQIRRSNLLKTGSLAAQDRGFFFGKRREPRCDLKNQSIVQADGSRKSAWLGDKPLRHESFIGILTTYAGIRRGPTVGGKEMLGKRVMKNGKLEWEWITYEQAFEISDNVSQAIRKLGIEIGDKSNIGIYSKNRPEWVLSDMAIHNFSNVSVPIYDNIPNEDMHYITNLCEIPLMFVDSEDKTTQLIKDKTYLSKSLKYIVQFDKVSDEMKAMAESNNFQLWSFDEFVELGKKHEHRPHAPPTPETLATISFTSGTTGRPKGAMLTHLNLCSTTVACEEFEHVEGELDSYLSYLPLAHVYERHCTLAHFKIGSNFHNFLNKFVEVFFFFKRISSKVTKIFRRIGFSRGDPALLVEDIQALAPRTFACVPRVLGKIYKSVMSQVQDKPVKKMILNSAIAYKLYHYKMTGKATRDTLVDKYILHKIQMILGPNIKQFLIPAAKTDNSSMRFARGAFGIEILELYGLTETSGPTTIQLVGDMLGSVGPPISCTSIKLVDIAELGYFVDENGGEVLVKGHNVTSGYYKDPKATASAFTEDGFMKTGDIGKFTPEGTLQLIDRRDNVLKLPQGEFVAPDLTESLYISSKFVQQICVHGNKEKPWLVAVVVPDPEYLASHANLEHNIEGKTYEELCKIPALAEDVLHALIKFFIWVFAIHLTPIAFSPQNGLTTPTHKNKRTAIAQFFKKQIVEMFDRIEKEEEGTELTTKIENAH", "soluble on expression in E. coli": "not soluble"}
{"sequence": "MLNTIVLIRTDNFDKALTALADLVRYGGMKIRGTPRIIPPALSDWAFEQIVGEKPKKKVKAHVVAQIDLPASKAIGRIRDIHPPAHIIVIPVGSPVHKELLRLWGTFKELKGFHPPKEIKRLENIENEEDLELEHHHHHH", "soluble on expression in E. coli": "not soluble"}
{"sequence": "MLPDSSVRLNKYISESGICSRREADRYIEQGNVFLNGKRATIGDQVKPGDVVKVNGQLIEPREAEDLVLIALNKPVGIVSTTEDGERDNIVDFVNHSKRVFPIGRLDKDSQGLIFLTNHGDLVNKILRAGNDHEKEYLVTVDKPITEEFIRGMSAGVPILGTVTKKCKVKKEAPFVFRITLVQGLNRQIRRMCEHFGYEVKKLERTRIMNVSLSGIPLGEWRDLTDDELIDLFKLIENSSSEVKPKAKAKPKTAGIKRPVVKMEKTAEKGGRPASNGKRFTSPGRKKKGRLEHHHHHH", "soluble on expression in E. coli": "soluble"}
{"sequence": "MLPLEPYLTQTSAVPQMSHFMCHSPTHKPQGLLPWAPFHQASVSLYPISPWPSESVCPPTCPGGASCWFPAGNAWDRVELGFLGFGAGGVSIAVPGFPLSCGQGCCAGGWLGHGARFPAKLRAFPQVIRRGWLTINNISLMKGGSKEYWFVLTAESLSWYKDEEEKEKKYMLPLDNLKIRDVEKGFMSNKHVFAIFNTEQRNVYKDLRQIELACDSQEDVDSWKASFLRAGVYPEKDQAENEDGAQENTFSMDPQLERQVETIRNLVDSYVAIINKSIRDLMPKTIMHLMINNTKAFIHHELLAYLYSSADQSSLMEESADQAQRRDDMLRMYHALKEALNIIGDISTSTVSTPVPPPVDDTWLQSASSHSPTPQRRPVSSIHPPGRPPAVRGPTPGPPLIPVPVGAAASFSAPPIPSRPGPQSVFANSDLFPAPPQIPSRPVRIPPGIPPGVPRRPPAAPSRPTIIRPAEPSLLD", "soluble on expression in E. coli": "soluble"}
{"sequence": "MLPMQLPFQRARRLCLRAALAAIASAAHADDGTIVITGTITDTTCVIEDPAGPTHTKVVQLPKISKSALAKDGDEAGRTPFLITLKNCPSSLNNGVKAYFEPGPTTDYATGDLKAYSIAYNNNPATTQNAIIAASEAQGVQIRISNQNGTKIPMGVDAAAQNAQAFNPVTDTADNAKKKVTLRYLASYVKKSGNITTGQLTTYVGFSMIYP", "soluble on expression in E. coli": "not soluble"}
{"sequence": "MLPSISINNTSAAYPESINENNNDEINGLVQEFKNLFNGKEGISTCIKHLLELIKNAIRVNDDPYRSNINNSSVTYIDIGSNDTDHITIGIDNQEPIELPANYKDKELVRTIINDNIVEKTHDINNKEMIFSALKEIYDGDPGFIFDKISHKLRHTVTEFDESGKSEPTDLFTWYGKDKKGDSLAIVIKNKNGNDYLSLGYYDQDDYHIQRGIRINGDSLTQYCSENARSASAWFESSKAIMAESFATGSDHQVVNELNGERLREPNEVFKRLGRAIRYNFQVDDAKFRRDNVKEIISTLFANKVDVDHPENKYKDFKNLEDKVEKRLQNRQTKYQNEINQLSALGVNFDDI", "soluble on expression in E. coli": "not soluble"}
{"sequence": "MLPSRKRLVLEQLGKTLSRFAGLQAVSPPARGWIRAIREALGMSGVQFAARLGVTPPRVTALERDELSGAVTMKTMRQAAEALDCVFLYALVPRTSLEETIRRQAEAVARERLLRVSHTMMLESQQLSEEEMKQALDAAVEELVRTMPKDLWSKAP", "soluble on expression in E. coli": "not soluble"}
{"sequence": "MLQNQYVREMRKYGVRGLRYDAAKHSKHEQIERSITPPLKNYNERLHNTNLFNPKYHEKAVMNYMEYLVTCQLDEEQMSSLLYERDDLSAIDFSLLMKTIKAFSFGGDLQTLASKPSSTISSIPSKRRILININHDFPNNGNLFNDFLFNHQQDEQLAMAYMAALPFSRPLVYWDGQVLKSTTEIKNYDGSTRVGGEAWLNKGCSTYQQLYNEFHALYIDKAGIWSAFEGVFATKNVLAFSRGDSVNINHSPHDGLVIINKGNEEVEGAWPNKLQPGKYKNMGSNSVNIIINNTRKIIPPGKAFMLRGGTLNINIPGRSALLLGKTGEPLNYLYL", "soluble on expression in E. coli": "not soluble"}
{"sequence": "MLRAKVRRIALANQKGGVGKTTTAINLAAYLARLGKRVLLVDLDPQGNATSGLGVRAERGVYHLLQGEPLEGLVHPVDGFHLLPATPDLVGATVELAGAPTALREALRDEGYDLVLLDAPPSLSPLTLNALAAAEGVVVPVQAEYYALEGVAGLLATLEEVRAGLNPRLRLLGILVTMYDGRTLLAQQVEAQLRAHFGEKVFWTVIPRNVRLAEAPSFGKTIAQHAPTSPGAHAYRRLAEEVMARVQEAGSHHHHHH", "soluble on expression in E. coli": "soluble"}
{"sequence": "MLRIAFASALRFVRRHSSVLQADFEGGVSQSHISRLERGESSVTLERLEEIAAHLNVHPLSLIALTWGASEQIPPAELLERVRRELESVEGLLRPIAIDDQPAVHPRIIEAEKVRNEVQRLKALGHTKAEISRLMGIAKSTAARHW", "soluble on expression in E. coli": "not soluble"}
{"sequence": "MLRITELKLPIDHPEEDLRVALLQHLGIDSSELLDFTLFKRSYDARKKSSELCFIYTIDFQVKDEAALLRKLANDRHVGPAPDVSYKVVGHAPEGLSERPIVVGFGPCGIFAGLLLAQMGFKPIILERGTEVRQRTKDTWALWRKNVLNAESNVQFGEGGAGTFSDGKLYSQIKDPKFIGRKVLHEFVKAGAPEEILYVSKPHIGTFRLTGVVENMRHQIEALGGEVRFQQRVTDLMIEDGQLLGVQLDSGEQIESRHVILALGHSARDTFRMLHGRGVFMEAKPFSVGFRIEHPQSLIDRARLGKYAGHPKLGAADYKLVHHASNGRSVYSFCMCPGGTVVAATSEPGRVVTNGMSQYSRNERNANSGIVVGISPEQDFPGSPLAGIELQERLESHAYLLGGSNYEAPAQLVGDFIAGRASTALGSVEPSYKPGVKLVDLAEALPAFAIEAIREALPAFDKQIKGFSLHDAVLTGIETRTSAPLRITRGPTMQSLNTKGLYPAGEGAGYAGGILSAGVDGIRVAEALVRDMLGIEGLEHHHHHH", "soluble on expression in E. coli": "soluble"}
{"sequence": "MLRKQVYLTPEEEAKLKRLARATGRTEAEILRLALDLLPEEEAPLLLALAEEGLLEVPERAVTPARMEEAYRRYLDRVAGRGLGLSKAVLADREGR", "soluble on expression in E. coli": "soluble"}
{"sequence": "MLRTEHYAFLPCISRALEERDSLGIRRELRARQQRLSMQQSRSKLGRVCVTGANSPLGQELVGALTRTPDPSLRPDAIGVIGARDPIESHSAGAGLHFPGPGVDFLECAATDLEHYNPRTLFSINDDDLGLRRRSIFRENQVVIDLLRAQGETNEPRSKTRLVLVTLLGCGDSEDAIPSQAFDVLRPLLLELSRVEQYVRESGLPYTIVRPGALEHGDADSRAIVSESKVGFGTIHRSTLAHLLLNVAASEKAVNKTLMALDMNRLLVAAPYVRPFEVWESPPFEVFDL", "soluble on expression in E. coli": "soluble"}
{"sequence": "MLRTQAARLICNSRVITAKRTFALATRAAAYSRPAARFVKPMITTRGLKQINFGGTVETVYERADWPREKLLDYFKNDTFALIGYGSQGYGQGLNLRDNGLNVIIGVRKDGASWKAAIEDGWVPGKNLFTVEDAIKRGSYVMNLLSDAAQSETWPAIKPLLTKGKTLYFSHGFSPVFKDLTHVEPPKDLDVILVAPKGSGRTVRSLFKEGRGINSSYAVWNDVTGKAHEKAQALAVAIGSGYVYQTTFEREVNSDLYGERGCLMGGIHGMFLAQYDVLRENGHSPSEAFNETVEEATQSLYPLIGKYGMDYMYDACSTTARRGALDWYPIFKNALKPVFQDLYESTKNGTETKRSLEFNSQPDYREKLEKELDTIRNMEIWKVGKEVRKLRPENQ", "soluble on expression in E. coli": "not soluble"}
{"sequence": "MLRVIVESASNIPKTKFGKPDPIVSVIFKDEKKKTKKVDNELNPVWNEILEFDLRGIPLDFSSSLGIIVKDFETIGQNKLIGTATVALKDLTGDQSRSLPYKLISLLNEKGQDTGATIDLVIGYDPP", "soluble on expression in E. coli": "soluble"}
